# Assay results: the nanobody polyreactivity screen of Harvey et al. (2022)
# Assay: yeast display, Sf9 membrane polyspecificity reagent, FACS + sequencing; frameworks hold sequencing errors
# Method in brief: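 Sorting gates, low and high (top ~1%), were placed on anti-HA fluorescence to track expression and on streptavidin fluorescence to track reagent binding. A clone's polyreactivity label is taken from the gate it came out of. The reagent was 10% biotinylated, detergent-solubilized Sf9 membrane, applied for 1 hour at 4 °C to galactose-induced yeast display cells.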
row,Sequence,polyreactivity (PSR sort gate)
1,QVQLVESGGGLVQAGGSLRLICAASGRIFLYYAMGWYRQAPGKERELVAAITRGGGTTYADSVKGRFTISRDNAKNTVYLQMNSLKPEDTAVYYCAKRYSYYPGFDYWGQGTQVTVSS,high polyreactivity
2,QVQLVESGGGLVQAGGSLRLSCAASGRTFSYYALGWYRQAPGKERELVATISYSTGNTNYADSVKGRFTISRDNAKNTVYLQMNSLKPEDTAVYYCAADFSPFVGETYWKYDYWGQGTQVTVSS,low polyreactivity
3,QVQLVESGGGLVQAGGSLRLSCAASGNIFIHYAMGWYRQAPGKERELVAAITWSGGSTYYADSVKGRFTISRDNAKNTVYLQMNSLTPEDTAVSYCNSVSKYGPADGYGDYWGQGTQVTVSS,high polyreactivity
4,QVQLVESGGALVQAGRSLRLSCAASGSIFSSYAMGRYRQAPGKERELVAAISRSGGRTYYADSVKGRFTITRDNAKNTVYLQMNSLKTEDTAVYYCAARRVLGEYGYWGQGTQVTVSS,high polyreactivity
5,QVQRVESGGGLVQAGGSLRLSCAASGLIFVVYAMGWYRQAPGKERELVADISSGGRTSYADSVKGRFTISRDNAKNTVYLQMNSLKPEDTAVYYCNAYPVFNQYYGWRYDYWGQGTQVTVSS,low polyreactivity
6,QVHLVESGGGLVQAGGSLRLSCAASGSTFYAYTMGWYRQAPGKERELVAAISSRGGRTYYADSVKGRFTISRDNAKNTVYLQMNSLKPEDTAVYYCARTSWSGVSYDYWGQGTQVTVSS,high polyreactivity
7,QVQLVESGGGLVQAGGSLRLICAASGRIFYGYAMGWYRPAPGKEREFVAAITVSAGSTYYADSVKGRFTISRDNAKNTVYLQMNSLKPEDTAVYYCAAKRYVYPSYRFDYWGQGTQVTVSS,low polyreactivity
8,QVQLVESGGGLVQAGGTLRLSCAASGGIFSYAMGWYRQAPGKERELVADINSDGSTTYADSVKGRFTISRDNAKNTVYLQMNSLKPEDTAVYYCAADTYFWSYSYNYYYWGQGTQVTVSS,low polyreactivity
9,QVQLVESGGGIVQAGGSLRLSCAASGRTFGYYAMRWYRQAPGKERELVAAIYWSGGSTRYADSVKGRFTISRDNAKNTVYLQMNSLNPDDTAVYYCAADSWYSFAGVYRVYGEDYWGQGTEVTVSS,low polyreactivity
10,QVQLVESGGGLVQAGGSLRLSCAASGSTFRYYAMGWYRQAPGKERQLVAAISYRGGSTKYADSVKGRFTISRDNAKNTVYLQMNSLKPEDTAVYYCAADSYYDSKRYYWGQGTQVTVSS,high polyreactivity
11,QVQLLESGGGLVPSRGSLRLSCAASGFIFGHNTMGWYRQAPGKERELVARITSSGGGTNYADSVKGRFTISRDNAKNTVYLQMNSLKPEDTAVYYCAAELLYWGYYDYDYWGQGTQVTVSS,high polyreactivity
12,QVQLVESGGGLDQAGGSLRLSCAASGFTSGYNVLGWYRQAPGTARELVAAISWRGTSTYYADSVKGRFTISRDNAKNTVYLQMNSLKPEDTAVYYCAARQRWYWRGYDYWGQGTQVTVSS,high polyreactivity
13,QVQLVESGGGLVQAGVSLPLICAASGFTIAYYTMGWYRQAPGKERELVAAISRRGSSTYYADSVMGRFTISRDNAKNTVDLQMNSLKPEDTAVYYCNKYSVLTPGYYYWGQGTQVTVSS,high polyreactivity
14,QFKLVESGGGLVQAGGSLRLICAASGITLNRNAMGRYRQAPGKEMELVARISRRGGTTYYADSVKGRFTISRDKAKNTVYLQMNSLKPEDTAVYYCNAGPYGGNPFDYWGQGTQVTVSS,high polyreactivity
15,QVQLVESGGGLVQAGGSLRISCAASGITASNAMGWNRQAPGKERELVAAISCRGGRTYYADSVKGRFTISRDNAKNTVYLQMNSLKPEDTAVYYCAKRYYTAQSRSDYWGQGTQVTVSS,high polyreactivity
16,QVQLVESGGGLVQAGGSLRLSCAASGITFYFNAMGWYRQAPGKERELVAAISFSGGGTYYADSVKGRFTISRDNAKNTVYLQMTSLKPEDTAVYYCNADYGRGTLRSIYDYWGQGTQVTVSS,low polyreactivity
17,QVQLVESGGGLVQAGGSLRLSCAASGITFQYYAMGWYRQAPGKERELVAAITKRGGSTYYADSVKGRFTISRDNAKNTVYLQMTSLKPEETAVYYCAADLGGNSRLDYWGQGTQVTVSS,high polyreactivity
18,QVQLVDSGGGLVQAGGSLRLSCAASGRIFEGDAMGWYIQAPGKESDLVASISYDGGSTYYADSVKGRFTISRDNENITVELQMNSLKPEDTAVYYCAAVYRRRSYSFYYWGQGTQVTVSS,high polyreactivity
19,QVQLVESGVGLVQAGGSLRLSCAASGSIFYVYAMGWYRQAPGKERELVAAITNYADSVKGRFTISRDNAKNTVYLQMNSLKPEDTAVYYCAADWWRVEMDYWGQGTQVTVSS,low polyreactivity
20,QVQHVESGGGLVQAVGSLRLSCAASGNIFDRNAMGWYRQARGKERELVAAISRSGGRTYYADSVKGRFTISRDNAKNTVYLQMNSLKPEDTAVYYCNRRYRKYSSAKYDYWGQGTQVTVSS,high polyreactivity
21,QVQLVESGGGLVQAGGSLRLSCAASGGTFPYNAMGWYRQAAGKERELVAAISSSGTSTYYADSVKRRFTISRDNAKNTVYLQMNSLKPEDTAVYYCNDYFKRYDYWGQGTQVTVSS,high polyreactivity
22,QVQLVESGGGLVQAGGSLRLSCAASGRNFVNYAMGWYRQAPGKERELVAVISRSGGGTNYADSVKGRYTISRDNAKNTVYLQMNSLKPEDTAVYYCAASRKYGYGYWGQGTQVTVSS,high polyreactivity

row,Sequence,polyreactivity (PSR sort gate)
1,QVQLVESGGGLVQAGGSLRLSCAASGRIIDDNAMGWYRQAPGKERELVASITVSTGSTYYADSVKGRFTISRDNAKNTVYLQMNSLKPEDTAVYYCDAPYITPYGTYVFSSDYWGQGTQVTVSS,low polyreactivity
2,QVQLVESGGGLVQAGGSLRLSCAASGINTAGYAMGWYRQAPGKERELVAAISTSGTSTYYADSVKGRFTISRDNAQNTVYLQMNSLQPEDTAVYYCAYTNYYGVGYYYWGQGTLVTVSS,low polyreactivity
3,QVQLVESGGGLVQAGGSLRLSCAASGFIFWTYAMGWYRQAPGKERELVAAITGGGGTTYYADSVKGRFTISRDTAKNTVYLQMNSLKPEDTAVYYCAAKQYRSRSGGYWGQGTQVTVSS,high polyreactivity
4,QVQLVESGGGLVQAGGSLRLSCAASGRIFGGNTMGWYRQAPGKEREFVAAITQSGTRTYYADSVKGRFTISRDNAKNTVYLQRNSLKPEDTAVDYCAAEGYWYPYDYWRQGTQVTVSS,high polyreactivity
5,QVQLVESGGGLVQAGGSLRLSCAASGRTFGIYAMGWYRQAPGKERELVAAITGRGGSTHYADSVKGRFTISRDNAKNTVYLQMNSLKPEDTAVYYCNARWWVIRPYQRHDYWGQGTQVTVSS,low polyreactivity
6,QVQLVESGGGLVQAGGSLRLSCAASGITFYQYALGWYRQAPGKERELVARISYSGGSTYADSVKGRFTISRDNAKNTVYLQMNSLKPEDTAVYYCATAYRFRYGFANRYDYWGQGTQVTVSS,low polyreactivity
7,QVQLVESVGCLVQAGGSLRLSCAASGFIFDYYAMGRYRHGPGKERELVAGISWSGGSTYYADSVKGRFTISSDNSKNTVYLQMNSLIPEDTAVYYCNAEDSVPFYLYYYWGQGSQVTVSS,low polyreactivity
8,QVQLVESGGGLVQAGGSLRLSCAASGRTFYANAMGWYRQAPGKERELVASITTSGGTYYADSVKGRFTISRDNAKNTVYLQMNSLKPEDTAVYYCAAEVYRSIGYDYWGQGTQVTVSS,low polyreactivity
9,QFQLVDSGRGLVQAGGSLRVSCAASGITFAYYAMGWYRQAPGKERELVAAISRSGGGTYYADSVKGRFTISRDNAKNPVYLQMNSLKPEDTAVYYCNKDYPYYYAGDGRFDYWGQGTQVTVSS,high polyreactivity
10,QVQLVESGGGLVQAGGSLRLSCAASGSIFDYNAMGWYRQAPGKERELVAAITSTDSTYADSVKGRFTISRDNAKNTVYLQMNSLKPEDTAVYYCAAEDVIYYLTGQWREYDYWGQGTQVTVSS,low polyreactivity
11,QVQLVESGGGLVQAGGSLRLSCAASGNILSVNAMGWYRQAPGKERELVASIRSSTASTYYADSVKGRFTISRDNAKNTVYLQMNSLKPEDTAVYYCAARARYNRYDYWGQGTQVTVSS,high polyreactivity
12,QVQLVESGGGLVQAGGSLRLSCAASGSTFAKYAMGWYRQAPGKERELVAVISWGGGSTYYADSVKGRFTISRDNAKNTVYLQMNSLKPEDTAVYYCAAVYDEYQTTHEYDYWGQGTQVTVSS,low polyreactivity
13,QVQLVESGGGLVQAGGSLRLSCAASGFTFSFYSMGWYRQAPGKERELVASISDSDGITFYADSVKGSFTISRDNAKNTVYLQMNSLKPEDTAVYYCAADVAIAIPFSYDYWGQGTQVTVSS,low polyreactivity
14,QVQLVESGGGLVQAGSSLRLSCAASGSIFPVYAMGWYRQSPGKERELVAAISCIGGGTYYADSVKGRFTISRDNAKNTVYLQMNSLKPEDTAVYYCAAVPYTSEYDYWGQGTQVTVSS,high polyreactivity
15,QVQLVESGGGLVQAGGSLRLSCAASGFIFRRYTMGWYRQAPGKERELVATITRSVNTDYADSVKGRFTFSRDNAKNTVYLQMNSLKPEDTAVYYCAARKYYYFPVAYDYWGQGTQVTVSS,high polyreactivity
16,QVQLVESGGGLVQAGGSLRLSCAASGRTFSSNAMGWYRQDPGKERELVASISFRGGRTYYADSVKGRFTISRDNAKNTVYLQMNSLKPEVTAVYYCVSGTKRTGYGYWGQGTQVTVSS,high polyreactivity
17,QVQLVESGGGLVQAGGSLRLSCAASGRIFGYYAMGWYRQAPGKERELVADITESGTSTYYADSVKGRFTISRDNAKNTVYLQMNSLKPEDTAVYYCAAGYWWRYALYGYWGQGTQVTVSS,low polyreactivity
18,QVQLVESGGGLVQAGGSLRLSCAASGSIFWYYVMGWYRQAPGKERELVAAITISGAGTYYADSVKGRFTISRDNAKNTVYLQMNSLKPEDTAVYYCAARLLGHFYPFFLQGLSGFDYWGQGTQVTVSS,low polyreactivity
19,QVQLVESGGGLVQAGGSLRLSCAASGSTFSNYAMGWYRQAPGKERELVASISNGGSTNYADSVKGRFTISRDNAKNTVYLQMNSLKPEDTAVYYCNAESKAKYDYWGQGTQVTVSS,low polyreactivity
20,QVQLVESGGGLVQAGGSLRLSCAASGRTFVVNAMGWYRQAPGKEREFVAAISYRGDSTYYADSVKGRFTISRDNAKNTVYLQMNSLKPEDSAVYYCAARVLGPGRRYYYWGQGTQVTLSS,high polyreactivity
21,QVQLVESGGGLVQAGGSLRLSCAASGSIIVLNAMGWYRQAPGKERELVAAISSDGITYYADSVKGRFTISRDNAKNTVYLQKNSLKPEDTAVYYCAAYRVDYSDAYYYWGQGTQVTVSS,low polyreactivity
